# Experimental data taken from patent US12398178 (dated 2025).
# B1: beta-catenin (other)
# chain: ATQADLMELDMAMEPDRKAAVSHWQQQSYLDSGIHSGATTTAPSLSGKGNPEEEDVDTSQVLYEWEQGFSQSFTQEQVADIDGQYAMTRAQRVRAAMFPETLDEGMQIPSTQFDAAHPTNVQRLAEPSQMLKHAVVNLINYQDDAELATRAIPELTKLLNDEDQVVVNKAAVMVHQLSKKEASRHAIMRSPQMVSAIVRTMQNTNDVETARCTAGTLHNLSHHREGLLAIFKSGGIPALVKMLGSPVDSVLFYAITTLHNLLLHQEGAKMAVRLAGGLQKMVALLNKTNVKFLAITTDCLQILAYGNQESKLIILASGGPQALVNIMRTYTYEKLLWTTSRVLKVLSVCSSNKPAIVEAGGMQALGLHLTDPSQRLVQNCLWTLRNLSDAATKQEGMEGLLGTLVQLLGSDDINVVTCAAGILSNLTCNNYKNKMMVCQVGGIEALVRTVLRAGDREDITEPAICALRHLTSRHQEAEMAQNAVRLHYGLPVVVKLLHPPSHWPLIKATVGLIRNLALCPANHAPLREQGAIPRLVQLLVRAHQDTQRRTSMGGTQQQFVEGVRMEEIVEGCTGALHILARDVHNRIVIRGLNTIPLFVQLLYSPIENIQRVAAGVLCELAQDKEAAEAIEAEGATAPLTELLHSRNEGVATYAAAVLFRMSEDKPQDYKKRLSVELTSSLFRTEPMAWNETADLGLDIGAQGEPLGYRQDDPSYRSFHSGGYGQDALGMDPMMEHEMGGHHPGADYPVDGLPDLGHAQDLMDGLPPGDSNQLAWFDTDL
# B2: beta-Catenin (other)
# chain: HAVVNLINYQDDAELATRAIPELTKLLNDEDQVVVNKAAVMVHQLSKKEASRHAIMRSPQMVSAIVRTMQNTNDVETARCTAGTLHNLSHHREGLLAIFKSGGIPALVKMLGSPVDSVLFYAITTLHNLLLHQEGAKMAVRLAGGLQKMVALLNKTNVKFLAITTDCLQILAYGNQESKLIILASGGPQALVNIMRTYTYEKLLWTTSRVLKVLSVCSSNKPAIVEAGGMQALGLHLTDPSQRLVQNCLWTLRNLSDAATKQEGMEGLLGTLVQLLGSDDINVVTCAAGILSNLTCNNYKNKMMVCQVGGIEALVRTVLRAGDREDITEPAICALRHLTSRHQEAEMAQNAVRLHYGLPVVVKLLHPPSHWPLIKATVGLIRNLALCPANHAPLREQGAIPRLVQLLVRAHQDTQRRTSMGGTQQQFVEGVRMEEIVEGCTGALHILARDVHNRIVIRGLNTIPLFVQLLYSPIENIQRVAAGVLCELAQDKEAAEAIEAEGATAPLTELLHSRNEGVATYAAAVLFRMSED
# What was measured:
# [1] = biological target: i,i+7 non-binder Linker 3; experiment: fluorescence polarization; xStAx41 derivative
# i,i+7 binder Linker 7 = experiment: fluorescence polarization; xStAx41 derivative
# i,i+7 binder Linker 4 = experiment: fluorescence polarization; xStAx41 derivative
# [2] = biological target: i,i+7 non-binder Linker 9; experiment: fluorescence polarization; xStAx41 derivative
# [3] = biological target: i,i+4 non-binder Linker 8; experiment: fluorescence polarization; xStAx41 derivative
# [4] = biological target: i,i+7 non-binder Linker 6; experiment: fluorescence polarization; xStAx41 derivative
# i,i+4 binder Linker 7 = experiment: fluorescence polarization; xStAx41 derivative
# [5] = biological target: i,i+4 non-binder Linker 5; experiment: fluorescence polarization; xStAx41 derivative
# [6] = biological target: i,i+4 non-binder Linker 2; experiment: fluorescence polarization; xStAx41 derivative
# [7] = biological target: i,i+4 non-binder Linker 7; experiment: fluorescence polarization; xStAx41 derivative
# i,i+7 binder Linker 8 = experiment: fluorescence polarization; xStAx41 derivative
# i,i+4 binder Linker 2 = experiment: fluorescence polarization; xStAx41 derivative
# [8] = biological target: i,i+4 non-binder Linker 3; experiment: fluorescence polarization; xStAx41 derivative
# i,i+7 binder Linker 5 = experiment: fluorescence polarization; xStAx41 derivative
# [9] = biological target: i,i+4 non-binder Linker 9; experiment: fluorescence polarization; xStAx41 derivative
# i,i+7 binder Linker 1 = experiment: fluorescence polarization; xStAx41 derivative
# [10] = biological target: i,i+4 non-binder Linker 6; experiment: fluorescence polarization; xStAx41 derivative
# [11] = biological target: i,i+7 non-binder Linker 7; experiment: fluorescence polarization; xStAx41 derivative
# i,i+7 binder Linker 3 = experiment: fluorescence polarization; xStAx41 derivative
# [12] = biological target: i,i+7 non-binder Linker 4; experiment: fluorescence polarization; xStAx41 derivative
# [13] = biological target: i,i+7 non-binder Linker 2; experiment: fluorescence polarization; xStAx41 derivative
# [14] = biological target: i,i+4 non-binder Linker 4; experiment: fluorescence polarization; xStAx41 derivative
# [15] = biological target: i,i+7 non-binder Linker 1; experiment: fluorescence polarization; xStAx41 derivative
# [16] = biological target: i,i+7 non-binder Linker 8; experiment: fluorescence polarization; xStAx41 derivative
# i,i+4 binder Linker 9 = experiment: fluorescence polarization; xStAx41 derivative
# i,i+4 binder Linker 6 = experiment: fluorescence polarization; xStAx41 derivative
# i,i+4 binder Linker 8 = experiment: fluorescence polarization; xStAx41 derivative
# i,i+7 binder Linker 6 = experiment: fluorescence polarization; xStAx41 derivative
# i,i+4 binder Linker 1 = experiment: fluorescence polarization; xStAx41 derivative
# i,i+4 binder Linker 3 = experiment: fluorescence polarization; xStAx41 derivative
# i,i+7 binder Linker 9 = experiment: fluorescence polarization; xStAx41 derivative
# i,i+4 binder Linker 4 = experiment: fluorescence polarization; xStAx41 derivative
# i,i+4 binder Linker 5 = experiment: fluorescence polarization; xStAx41 derivative
# [17] = biological target: i,i+7 non-binder Linker 5; experiment: fluorescence polarization; xStAx41 derivative
# i,i+7 binder Linker 2 = experiment: fluorescence polarization; xStAx41 derivative
# [18] = biological target: i,i+4 non-binder Linker 1; experiment: fluorescence polarization; xStAx41 derivative
# Compound 2 = experiment: SPR (Biacore)
binder,measurement,setting,value
B1,Kd,[1],> 50 µM
same,Kd,"i,i+7 binder Linker 7",600 nM
same,Kd,"i,i+7 binder Linker 4",8.7 µM
same,Kd,[2],> 50 µM
same,Kd,[3],> 50 µM
same,Kd,[4],> 50 µM
same,Kd,"i,i+4 binder Linker 7",7.8 µM
same,Kd,[5],> 50 µM
same,Kd,[6],> 50 µM
same,Kd,[7],> 50 µM
same,Kd,"i,i+7 binder Linker 8",16.3 µM
same,Kd,"i,i+4 binder Linker 2",3.1 µM
same,Kd,[8],> 50 µM
same,Kd,"i,i+7 binder Linker 5",14.6 µM
same,Kd,[9],> 50 µM
same,Kd,"i,i+7 binder Linker 1",2900 nM
same,Kd,[10],> 50 µM
same,Kd,[11],> 50 µM
same,Kd,"i,i+7 binder Linker 3",25.4 µM
same,Kd,[12],> 50 µM
same,Kd,[13],> 50 µM
same,Kd,[14],> 50 µM
same,Kd,[15],> 50 µM
same,Kd,[16],> 50 µM
same,Kd,"i,i+4 binder Linker 9",2400 nM
same,Kd,"i,i+4 binder Linker 6",5.6 µM
same,Kd,"i,i+4 binder Linker 8",28.7 µM
same,Kd,"i,i+7 binder Linker 6",5.3 µM
same,Kd,"i,i+4 binder Linker 1",> 50 µM
same,Kd,"i,i+4 binder Linker 3",7.1 µM
same,Kd,"i,i+7 binder Linker 9",10.5 µM
same,Kd,"i,i+4 binder Linker 4",10.1 µM
same,Kd,"i,i+4 binder Linker 5",8.6 µM
same,Kd,[17],> 50 µM
same,Kd,"i,i+7 binder Linker 2",> 50 µM
same,Kd,[18],> 50 µM
B2,Kd,Compound 2,450 nM
